# Measurements as given in PMC8452682, “Unwinding of a DNA replication fork by a hexameric viral helicase” (Nature Communications, 2021).
# Biological target: the molecule itself
# Experiment: cryo-EM structure; E1RF complex: 60 uM E1 assembled with 10 uM fork DNA, no nucleotide, purified by gel filtration (10 mM Tris-Cl pH 8.0, 225 mM NaCl, 2 mM DTT, 0.1 mM PMSF, 1 mM EDTA); hexamer on DNA; Titan Krios 300 kV, K3
protein,measurement,value
"Bovine papillomavirus (BPV) E1 helicase, full-length, wild type (enzyme, Replication protein E1 of bovine papillomavirus (BPV), full length; C-terminal acidic tail is residues 579-605; Hexamer assembled on a synthetic DNA replication fork (30 bp dsDNA, 3' T20, 13-base 5' tail) without nucleotide; also called E1 protein; subunits A-F of the E1RF complex; source: expressed as a GST fusion protein, purified (glutathione sepharose, thrombin cleavage, cation and anion …)) MANDKGSNWDSGLGCSYLLTEAECESDKENEEPGAGVELSVESDRYDSQDEDFVDNASVFQGNHLEVFQALEKKAGEEQILNLKRKVLGSSQNSSGSEASETPVKRRKSGAKRRLFAENEANRVLTPLQVQGEGEGRQELNEEQAISHLHLQLVKSKNATVFKLGLFKSLFLCSFHDITRLFKNDKTTNQQWVLAVFGLAEVFFEASFELLKKQCSFLQMQKRSHEGGTCAVYLICFNTAKSRETVRNLMANTLNVREECLMLQPAKIRGLSAALFWFKSSLSPATLKHGALPEWIRAQTTLNESLQTEKFDFGTMVQWAYDHKYAEESKIAYEYALAAGSDSNARAFLATNSQAKHVKDCATMVRHYLRAETQALSMPAYIKARCKLATGEGSWKSILTFFNYQNIELITFINALKLWLKGIPKKNCLAFIGPPNTGKSMLCNSLIHFLGGSVLSFANHKSHFWLASLADTRAALVDDATHACWRYFDTYLRNALDGYPVSIDRKHKAAVQIKAPPLLVTSNIDVQAEDRYLYLHSRVQTFRFEQPCTDESGEQPFNITDADWKSFFVRLWGRLDLIDEEEDSEEDGDSMRTFTCSARNTNAVD",stoichiometry N,6
